The target in this assay is USP7 (UniProt Q93009). The experiment in a line: co-IP of Flag-HIF-1α, USP7 blot. The following applies: reference: wild type Flag-HIF-1α; sites T645.

Turning to “HIF-1α (from UniProt Q16665) Flag-HIF-1α T645A”, the “binding against the reference” value was “weaker”.
